From the Immune Epitope Database (IEDB)

Key:
[1] = target: HLA-A*11:01; assay: IEDB peptide-MHC binding, purified MHC/direct/fluorescence; filed as Kd, often an IC50 or EC50 that approximates it; ≥ and ≤ were set here for values at or beyond the usual limits of such assays; conditions: source organism: Bacillus anthracis
[2] = target: HLA-A*31:01; assay: as above; conditions: source organism: Bacillus anthracis
[3] = target: HLA-B*27:05; assay: as above; conditions: source organism: Bacillus anthracis
[4] = target: HLA-B*39:01; assay: as above; conditions: source organism: Picosynechococcus sp. PCC 7002
[5] = target: HLA-A*26:02; assay: as above; conditions: source organism: Picosynechococcus sp. PCC 7002
[6] = target: HLA-A*03:01; assay: as above
[7] = target: HLA-A*26:03; assay: as above
[8] = target: HLA-B*07:02; assay: as above; conditions: source organism: Bacillus anthracis
[9] = target: HLA-A*01:01; assay: as above; conditions: source organism: Bacillus anthracis
[10] = target: HLA-A*69:01; assay: as above; conditions: source organism: Bacillus anthracis
[11] = target: HLA-B*46:01; assay: as above
[12] = target: HLA-B*57:01; assay: as above
[13] = target: HLA-B*40:01; assay: as above; conditions: source organism: Bacillus anthracis
[14] = target: HLA-B*15:01; assay: as above
[15] = target: HLA-B*58:01; assay: as above; conditions: source organism: Bacillus anthracis
[16] = target: HLA-A*02:01; assay: as above
[17] = target: HLA-B*08:01; assay: as above; conditions: source organism: Picosynechococcus sp. PCC 7002
[18] = target: HLA-B*48:01; assay: as above; conditions: source organism: Bacillus anthracis
[19] = target: HLA-B*15:17; assay: IEDB peptide-MHC binding, purified MHC/competitive/fluorescence; filed as Kd, often an IC50 or EC50 that approximates it; ≥ and ≤ were set here for values at or beyond the usual limits of such assays
[20] = target: HLA-A*02:03; assay: as above
[21] = target: HLA-A*11:01; assay: as above; conditions: source organism: Human immunodeficiency virus 1
[22] = target: HLA-A*30:01; assay: as above; conditions: source organism: Human immunodeficiency virus 1
[23] = target: HLA-A*26:02; assay: as above; conditions: source organism: Human immunodeficiency virus 1
[24] = target: HLA-A*01:01; assay: as above; conditions: source organism: Human immunodeficiency virus 1
[25] = target: HLA-A*02:06; assay: as above; conditions: source organism: Human immunodeficiency virus 1
[26] = target: HLA-B*57:01; assay: as above; conditions: source organism: Human immunodeficiency virus 1
[27] = target: HLA-B*18:01; assay: as above; conditions: source organism: Human immunodeficiency virus 1
[28] = target: HLA-A*02:11; assay: IEDB peptide-MHC binding, purified MHC/direct/fluorescence; filed as Kd, often an IC50 or EC50 that approximates it; ≥ and ≤ were set here for values at or beyond the usual limits of such assays; conditions: source organism: Cryptosporidium parvum Iowa II
[29] = target: HLA-A*24:03; assay: as above; conditions: source organism: Cryptosporidium parvum Iowa II
[30] = target: HLA-B*51:01; assay: as above; conditions: source organism: Cryptosporidium parvum Iowa II
[31] = target: HLA-A*29:02; assay: as above; conditions: source organism: Cryptosporidium parvum Iowa II
[32] = target: HLA-A*02:16; assay: as above; conditions: source organism: Cryptosporidium parvum Iowa II
[33] = target: HLA-B*27:03; assay: as above; conditions: source organism: Cryptosporidium parvum Iowa II
[34] = target: HLA-A*26:01; assay: as above; conditions: source organism: Cryptosporidium parvum Iowa II
[35] = target: HLA-A*02:12; assay: as above; conditions: source organism: Cryptosporidium parvum Iowa II
[36] = target: HLA-A*02:03; assay: as above; conditions: source organism: Cryptosporidium parvum Iowa II
[37] = target: HLA-C*05:01; assay: as above; conditions: source organism: Cryptosporidium parvum Iowa II
[38] = target: HLA-A*23:01; assay: as above; conditions: source organism: Cryptosporidium parvum Iowa II
[39] = target: HLA-A*02:19; assay: as above; conditions: source organism: Cryptosporidium parvum Iowa II
[40] = target: HLA-B*15:42; assay: IEDB peptide-MHC binding, purified MHC/competitive/fluorescence; filed as Kd, often an IC50 or EC50 that approximates it; ≥ and ≤ were set here for values at or beyond the usual limits of such assays
[41] = target: HLA-C*14:02; assay: as above; conditions: source organism: Cryptosporidium parvum Iowa II
[42] = target: HLA-B*45:06; assay: as above
[43] = target: HLA-A*68:23; assay: as above; conditions: source organism: Cryptosporidium parvum Iowa II
[44] = target: HLA-B*83:01; assay: as above
[45] = target: HLA-A*32:07; assay: as above; conditions: source organism: Mycobacterium tuberculosis C
[46] = target: HLA-A*68:02; assay: IEDB peptide-MHC binding, purified MHC/competitive/fluorescence; ≥ and ≤ were set here for values at or beyond the usual limits of such assays; conditions: source organism: Monodelphis domestica
[47] = target: HLA-A*02:01; assay: as above; conditions: source organism: Monodelphis domestica
[48] = target: HLA-C*08:02; assay: IEDB peptide-MHC binding, purified MHC/direct/fluorescence; filed as Kd, often an IC50 or EC50 that approximates it; ≥ and ≤ were set here for values at or beyond the usual limits of such assays; conditions: source organism: Hylobates lar
[49] = source organism: Bacillus anthracis
[50] = source organism: Bacillus anthracis str. A0488
[51] = source organism: Human immunodeficiency virus 1
[52] = source organism: Cryptosporidium parvum Iowa II
[53] = source organism: Mycobacterium tuberculosis C

**Q.** With DTVLFNAGL as the sequence, how does the Kd [1] read?
**A.** ≥ 20 µM

**Q.** What about the Kd [2] of the same sequence?
**A.** ≥ 20 µM

**Q.** What about the Kd [3] of the same sequence?
**A.** ≥ 20 µM

**Q.** What about the Kd [4] of the same sequence?
**A.** ≥ 20 µM

**Q.** What about the Kd [5] of the same sequence?
**A.** 0.041 µM

**Q.** And the Kd [6, 49]?
**A.** ≥ 20 µM

**Q.** And the Kd ([7]; source organism: Picosynechococcus sp. PCC 7002)?
**A.** 0.054 µM

**Q.** And the Kd [8]?
**A.** ≥ 20 µM

**Q.** And the Kd [9]?
**A.** ≥ 20 µM

**Q.** And the Kd [10]?
**A.** ≤ 0.001 µM

**Q.** What about the Kd [11, 49] of the same sequence?
**A.** ≥ 20 µM

**Q.** And the Kd [12, 49]?
**A.** ≥ 20 µM

**Q.** And the Kd [13]?
**A.** ≥ 20 µM

**Q.** What about the Kd [14, 49] of the same sequence?
**A.** ≥ 20 µM

**Q.** And the Kd [15]?
**A.** ≥ 20 µM

**Q.** What about the Kd [16, 49] of the same sequence?
**A.** ≥ 20 µM

**Q.** And the Kd [17]?
**A.** ≥ 20 µM

**Q.** And the Kd [18]?
**A.** ≥ 20 µM

**Q.** What about the Kd [19, 50] of the same sequence?
**A.** ≥ 20 µM

**Q.** What about the Kd [20, 50] of the same sequence?
**A.** ≥ 20 µM

**Q.** With GTIIAHGGL as the sequence, how does the Kd ([7]; source organism: Rickettsia prowazekii) read?
**A.** ≥ 20 µM

**Q.** For KSLFNTIATLY, which Kd [21] is on record?
**A.** 0.11 µM

**Q.** What about the Kd [22] of the same sequence?
**A.** ≥ 20 µM

**Q.** And the Kd [23]?
**A.** ≥ 20 µM

**Q.** What about the Kd [19, 51] of the same sequence?
**A.** 0.0022 µM

**Q.** What about the Kd [24] of the same sequence?
**A.** 1.02 µM

**Q.** And the Kd [25]?
**A.** 0.254 µM

**Q.** What about the Kd [20, 51] of the same sequence?
**A.** 1.9 µM

**Q.** And the Kd [26]?
**A.** 0.114 µM

**Q.** And the Kd [27]?
**A.** 0.284 µM

**Q.** MPMSMPIPM was tested. Which Kd [28] did it give?
**A.** ≥ 20 µM

**Q.** What about the Kd [29] of the same sequence?
**A.** ≥ 20 µM

**Q.** What about the Kd [30] of the same sequence?
**A.** 5.84 µM

**Q.** What about the Kd [31] of the same sequence?
**A.** ≥ 20 µM

**Q.** What about the Kd [6, 52] of the same sequence?
**A.** ≥ 20 µM

**Q.** And the Kd [32]?
**A.** ≥ 20 µM

**Q.** And the Kd [33]?
**A.** ≥ 20 µM

**Q.** What about the Kd [34] of the same sequence?
**A.** ≥ 20 µM

**Q.** And the Kd [35]?
**A.** ≥ 20 µM

**Q.** What about the Kd [11, 52] of the same sequence?
**A.** ≥ 20 µM

**Q.** And the Kd [36]?
**A.** ≥ 20 µM

**Q.** And the Kd [12, 52]?
**A.** ≥ 20 µM

**Q.** And the Kd [14, 52]?
**A.** ≥ 20 µM

**Q.** What about the Kd [37] of the same sequence?
**A.** ≥ 20 µM

**Q.** And the Kd [16, 52]?
**A.** ≥ 20 µM

**Q.** What about the Kd [38] of the same sequence?
**A.** ≥ 20 µM

**Q.** What about the Kd [39] of the same sequence?
**A.** ≥ 20 µM

**Q.** And the Kd [40, 52]?
**A.** ≥ 5 µM

**Q.** And the Kd [41]?
**A.** 0.125 µM

**Q.** What about the Kd [42, 52] of the same sequence?
**A.** ≥ 5 µM

**Q.** What about the Kd [43] of the same sequence?
**A.** 0.0027 µM

**Q.** And the Kd [44, 52]?
**A.** 0.0395 µM

**Q.** Which results are given for RIRAANLPI?
**A.** Kd [40, 53]: ≥ 5 µM; Kd [42, 53]: ≥ 5 µM; Kd [44, 53]: ≥ 5 µM; Kd [45]: 0.0333 µM

**Q.** For YSLEYFQFV, which IC50 [46] is on record?
**A.** 0.106 µM

**Q.** And the IC50 [47]?
**A.** 0.0592 µM

**Q.** What about the Kd [48] of the same sequence?
**A.** ≥ 20 µM
